Reference: article PMC10786891, “Massively parallel profiling of RNA-targeting CRISPR-Cas13d”

T1: EsCas13d, nuclease-dead (Eubacterium siraeum, UniProt B0MS50, R295A;H300A;R849A;H854A)
T1 sequence: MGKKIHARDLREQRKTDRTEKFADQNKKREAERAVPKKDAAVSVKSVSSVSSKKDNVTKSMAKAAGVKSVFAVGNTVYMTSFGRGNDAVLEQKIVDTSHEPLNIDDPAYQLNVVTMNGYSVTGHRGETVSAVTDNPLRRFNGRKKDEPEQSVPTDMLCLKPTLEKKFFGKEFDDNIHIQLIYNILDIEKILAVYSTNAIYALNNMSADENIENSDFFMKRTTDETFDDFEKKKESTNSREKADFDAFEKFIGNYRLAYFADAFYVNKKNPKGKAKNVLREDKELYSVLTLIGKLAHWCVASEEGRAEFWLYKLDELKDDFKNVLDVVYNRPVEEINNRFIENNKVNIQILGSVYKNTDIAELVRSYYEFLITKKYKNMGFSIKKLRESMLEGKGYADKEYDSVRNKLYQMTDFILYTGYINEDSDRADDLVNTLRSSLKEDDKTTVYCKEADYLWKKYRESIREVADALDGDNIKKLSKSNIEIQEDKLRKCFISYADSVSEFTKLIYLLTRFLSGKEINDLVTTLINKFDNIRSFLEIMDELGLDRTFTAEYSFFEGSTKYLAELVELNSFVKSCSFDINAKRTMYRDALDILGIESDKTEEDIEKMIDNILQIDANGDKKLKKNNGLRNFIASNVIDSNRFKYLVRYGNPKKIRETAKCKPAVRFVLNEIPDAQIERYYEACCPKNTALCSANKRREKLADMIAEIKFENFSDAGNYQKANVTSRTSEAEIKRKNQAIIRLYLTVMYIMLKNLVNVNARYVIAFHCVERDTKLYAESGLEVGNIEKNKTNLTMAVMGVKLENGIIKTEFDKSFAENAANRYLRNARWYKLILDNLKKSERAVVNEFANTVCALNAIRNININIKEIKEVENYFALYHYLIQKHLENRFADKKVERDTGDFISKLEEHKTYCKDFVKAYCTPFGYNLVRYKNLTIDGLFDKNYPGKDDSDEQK

B1: target 1 A1U,A18U (mixed)
RNA 1: CACCCGUGCAAAAAUGCAGGGGUCUAAAACUGAGCGGAUAACCUCUCUAUGG
RNA 2: GGGAAUGGAUCCACAUCUACGAAUUCGUACCAUUGAGAGGUUAUCCGCUCUCCGAGAUCGGAAGAGCACACGU
B2: target 1 insG 3' of 6,insC 3' of 5 (mixed)
RNA 1: CACCCGUGCAAAAAUGCAGGGGUCUAAAACUGAGCGGAUAACCUCUCUAUGG
RNA 2: GGGAAUGGAUCCACAUCUACGAAUUCGUACCAUAGAGAGGUUAUCCGGCCUCACCGAGAUCGGAAGAGCACACGU
B3: target 1 C2G,U8A (mixed)
RNA 1: CACCCGUGCAAAAAUGCAGGGGUCUAAAACUGAGCGGAUAACCUCUCUAUGG
RNA 2: GGGAAUGGAUCCACAUCUACGAAUUCGUACCAUAGAGAGGUUAACCGCUGACCGAGAUCGGAAGAGCACACGU
B4: target 1 insU 3' of 20,insA 3' of 15 (mixed)
RNA 1: CACCCGUGCAAAAAUGCAGGGGUCUAAAACUGAGCGGAUAACCUCUCUAUGG
RNA 2: GGGAAUGGAUCCACAUCUACGAAUUCGUACCAUUAGAGAAGGUUAUCCGCUCACCGAGAUCGGAAGAGCACACGU
B5: target 1 insG 3' of 16,insC 3' of 15 (mixed)
RNA 1: CACCCGUGCAAAAAUGCAGGGGUCUAAAACUGAGCGGAUAACCUCUCUAUGG
RNA 2: GGGAAUGGAUCCACAUCUACGAAUUCGUACCAUAGAGGCAGGUUAUCCGCUCACCGAGAUCGGAAGAGCACACGU
B6: target 1 insG 3' of 21,insA 3' of 4 (mixed)
RNA 1: CACCCGUGCAAAAAUGCAGGGGUCUAAAACUGAGCGGAUAACCUCUCUAUGG
RNA 2: GGGAAUGGAUCCACAUCUACGAAUUCGUACCGAUAGAGAGGUUAUCCGCAUCACCGAGAUCGGAAGAGCACACGU
B7: target 1 insU 3' of 13,insC 3' of 3 (mixed)
RNA 1: CACCCGUGCAAAAAUGCAGGGGUCUAAAACUGAGCGGAUAACCUCUCUAUGG
RNA 2: GGGAAUGGAUCCACAUCUACGAAUUCGUACCAUAGAGAGUGUUAUCCGCUCCACCGAGAUCGGAAGAGCACACGU
B8: target 1 C6A,U10G (mixed)
RNA 1: CACCCGUGCAAAAAUGCAGGGGUCUAAAACUGAGCGGAUAACCUCUCUAUGG
RNA 2: GGGAAUGGAUCCACAUCUACGAAUUCGUACCAUAGAGAGGUGAUCAGCUCACCGAGAUCGGAAGAGCACACGU
B9: target 1 C22G (mixed)
RNA 1: CACCCGUGCAAAAAUGCAGGGGUCUAAAACUGAGCGGAUAACCUCUCUAUGG
RNA 2: GGGAAUGGAUCCACAUCUACGAAUUCGUAGCAUAGAGAGGUUAUCCGCUCACCGAGAUCGGAAGAGCACACGU
B10: target 1 insG 3' of 21,insG 3' of 8 (mixed)
RNA 1: CACCCGUGCAAAAAUGCAGGGGUCUAAAACUGAGCGGAUAACCUCUCUAUGG
RNA 2: GGGAAUGGAUCCACAUCUACGAAUUCGUACCGAUAGAGAGGUUAUGCCGCUCACCGAGAUCGGAAGAGCACACGU
B11: target 1 insC 3' of 18,insA 3' of 6 (mixed)
RNA 1: CACCCGUGCAAAAAUGCAGGGGUCUAAAACUGAGCGGAUAACCUCUCUAUGG
RNA 2: GGGAAUGGAUCCACAUCUACGAAUUCGUACCAUACGAGAGGUUAUCCAGCUCACCGAGAUCGGAAGAGCACACGU
B12: target 1 insU 3' of 20,insA 3' of 19 (mixed)
RNA 1: CACCCGUGCAAAAAUGCAGGGGUCUAAAACUGAGCGGAUAACCUCUCUAUGG
RNA 2: GGGAAUGGAUCCACAUCUACGAAUUCGUACCAUUAAGAGAGGUUAUCCGCUCACCGAGAUCGGAAGAGCACACGU
B13: target 1 insA 3' of 11,insU 3' of 4 (mixed)
RNA 1: CACCCGUGCAAAAAUGCAGGGGUCUAAAACUGAGCGGAUAACCUCUCUAUGG
RNA 2: GGGAAUGGAUCCACAUCUACGAAUUCGUACCAUAGAGAGGUAUAUCCGCUUCACCGAGAUCGGAAGAGCACACGU
B14: target 1 insA 3' of 19,insC 3' of 15 (mixed)
RNA 1: CACCCGUGCAAAAAUGCAGGGGUCUAAAACUGAGCGGAUAACCUCUCUAUGG
RNA 2: GGGAAUGGAUCCACAUCUACGAAUUCGUACCAUAAGAGCAGGUUAUCCGCUCACCGAGAUCGGAAGAGCACACGU
B15: target 1 insA 3' of 6,insC 3' of 1 (mixed)
RNA 1: CACCCGUGCAAAAAUGCAGGGGUCUAAAACUGAGCGGAUAACCUCUCUAUGG
RNA 2: GGGAAUGGAUCCACAUCUACGAAUUCGUACCAUAGAGAGGUUAUCCAGCUCACCCGAGAUCGGAAGAGCACACGU
B16: target 1 insA 3' of 11,insA 3' of 10 (mixed)
RNA 1: CACCCGUGCAAAAAUGCAGGGGUCUAAAACUGAGCGGAUAACCUCUCUAUGG
RNA 2: GGGAAUGGAUCCACAUCUACGAAUUCGUACCAUAGAGAGGUAUAAUCCGCUCACCGAGAUCGGAAGAGCACACGU
B17: target 1 insU 3' of 17,insU 3' of 15 (mixed)
RNA 1: CACCCGUGCAAAAAUGCAGGGGUCUAAAACUGAGCGGAUAACCUCUCUAUGG
RNA 2: GGGAAUGGAUCCACAUCUACGAAUUCGUACCAUAGUAGUAGGUUAUCCGCUCACCGAGAUCGGAAGAGCACACGU
B18: target 1 insU 3' of 18,insA 3' of 6 (mixed)
RNA 1: CACCCGUGCAAAAAUGCAGGGGUCUAAAACUGAGCGGAUAACCUCUCUAUGG
RNA 2: GGGAAUGGAUCCACAUCUACGAAUUCGUACCAUAUGAGAGGUUAUCCAGCUCACCGAGAUCGGAAGAGCACACGU
B19: target 1 insU 3' of 2,insG 3' of 1 (mixed)
RNA 1: CACCCGUGCAAAAAUGCAGGGGUCUAAAACUGAGCGGAUAACCUCUCUAUGG
RNA 2: GGGAAUGGAUCCACAUCUACGAAUUCGUACCAUAGAGAGGUUAUCCGCUCUAGCCGAGAUCGGAAGAGCACACGU
B20: target 1 insG 3' of 22,insC 3' of 15 (mixed)
RNA 1: CACCCGUGCAAAAAUGCAGGGGUCUAAAACUGAGCGGAUAACCUCUCUAUGG
RNA 2: GGGAAUGGAUCCACAUCUACGAAUUCGUACGCAUAGAGCAGGUUAUCCGCUCACCGAGAUCGGAAGAGCACACGU
B21: target 1 insU 3' of 14,insU 3' of 7 (mixed)
RNA 1: CACCCGUGCAAAAAUGCAGGGGUCUAAAACUGAGCGGAUAACCUCUCUAUGG
RNA 2: GGGAAUGGAUCCACAUCUACGAAUUCGUACCAUAGAGAUGGUUAUCUCGCUCACCGAGAUCGGAAGAGCACACGU
B22: target 1 C2A,A9C (mixed)
RNA 1: CACCCGUGCAAAAAUGCAGGGGUCUAAAACUGAGCGGAUAACCUCUCUAUGG
RNA 2: GGGAAUGGAUCCACAUCUACGAAUUCGUACCAUAGAGAGGUUCUCCGCUAACCGAGAUCGGAAGAGCACACGU
B23: target 1 insA 3' of 12,insC 3' of 12 (mixed)
RNA 1: CACCCGUGCAAAAAUGCAGGGGUCUAAAACUGAGCGGAUAACCUCUCUAUGG
RNA 2: GGGAAUGGAUCCACAUCUACGAAUUCGUACCAUAGAGAGGACUUAUCCGCUCACCGAGAUCGGAAGAGCACACGU
B24: target 1 C2U,C7A (mixed)
RNA 1: CACCCGUGCAAAAAUGCAGGGGUCUAAAACUGAGCGGAUAACCUCUCUAUGG
RNA 2: GGGAAUGGAUCCACAUCUACGAAUUCGUACCAUAGAGAGGUUAUACGCUUACCGAGAUCGGAAGAGCACACGU
B25: target 1 insA 3' of 13,insU 3' of 4 (mixed)
RNA 1: CACCCGUGCAAAAAUGCAGGGGUCUAAAACUGAGCGGAUAACCUCUCUAUGG
RNA 2: GGGAAUGGAUCCACAUCUACGAAUUCGUACCAUAGAGAGAGUUAUCCGCUUCACCGAGAUCGGAAGAGCACACGU
B26: target 1 G5C,C22A (mixed)
RNA 1: CACCCGUGCAAAAAUGCAGGGGUCUAAAACUGAGCGGAUAACCUCUCUAUGG
RNA 2: GGGAAUGGAUCCACAUCUACGAAUUCGUAACAUAGAGAGGUUAUCCCCUCACCGAGAUCGGAAGAGCACACGU
B27: target 1 insU 3' of 15,insG 3' of 14 (mixed)
RNA 1: CACCCGUGCAAAAAUGCAGGGGUCUAAAACUGAGCGGAUAACCUCUCUAUGG
RNA 2: GGGAAUGGAUCCACAUCUACGAAUUCGUACCAUAGAGUAGGGUUAUCCGCUCACCGAGAUCGGAAGAGCACACGU
B28: target 1 insG 3' of 8,insU 3' of 2 (mixed)
RNA 1: CACCCGUGCAAAAAUGCAGGGGUCUAAAACUGAGCGGAUAACCUCUCUAUGG
RNA 2: GGGAAUGGAUCCACAUCUACGAAUUCGUACCAUAGAGAGGUUAUGCCGCUCUACCGAGAUCGGAAGAGCACACGU

Molecular target: T1, EsCas13d, nuclease-dead
Experiment: crRNA (strand 1, pre-loaded); Mg2+; 40 mM Tris-HCl pH 7.5, 150 mM NaCl, 6 mM MgCl2, 1 mM DTT, 0.1% Tween-20, 0.2 mg/ml BSA; 25 C; 10 min per concentration, then washed
Details: tags: His6-TwinStrep-SUMO cleaved; N-terminal SNAP kept (SNAP-Surface 488); label: 3' end held by stalled T7 RNA polymerase

| Binder | Kd [nM] |
| --- | --- |
| B1 | 22 ± 2 |
| B2 | 13.9 ± 1.1 |
| B3 | 13.5 ± 0.8 |
| B4 | 7.6 ± 0.5 |
| B5 | 28.8 ± 2.1 |
| B6 | 41 ± 10 |
| B7 | 25 ± 5 |
| B8 | 13.9 ± 0.7 |
| B9 | 61 ± 11 |
| B10 | 58 ± 10 |
| B11 | 32.3 ± 1.5 |
| B12 | 20.9 ± 1.4 |
| B13 | 13.7 ± 0.9 |
| B14 | 52 ± 9 |
| B15 | 17.6 ± 1.1 |
| B16 | 9.4 ± 0.5 |
| B17 | 64 ± 28 |
| B18 | 32.6 ± 1.1 |
| B19 | 12.2 ± 0.6 |
| B20 | 48 ± 4 |
| B21 | 77 ± 9 |
| B22 | 12.2 ± 0.4 |
| B23 | 30.4 ± 1.8 |
| B24 | 6.8 ± 0.5 |
| B25 | 3.45 ± 0.26 |
| B26 | 17.3 ± 1.9 |
| B27 | 22.5 ± 2.2 |
| B28 | 15.1 ± 0.6 |
